The values that follow come from patent US20170369592A1, “NOVEL ANTI-FIBROBLAST ACTIVATION PROTEIN (FAP) ANTIBODIES AND USES DERIVED THEREOF” (Mabimmune Diagnostics AG, priority 2015, published 2017).

Assay [1] addresses T1, recombinant human FAP (rhFAP) (Homo sapiens, UniProt Q12884).
T1 construct: purchased Sino Biologicals 10464-H07H
T1 sequence (Q12884 26-760 limits assumed): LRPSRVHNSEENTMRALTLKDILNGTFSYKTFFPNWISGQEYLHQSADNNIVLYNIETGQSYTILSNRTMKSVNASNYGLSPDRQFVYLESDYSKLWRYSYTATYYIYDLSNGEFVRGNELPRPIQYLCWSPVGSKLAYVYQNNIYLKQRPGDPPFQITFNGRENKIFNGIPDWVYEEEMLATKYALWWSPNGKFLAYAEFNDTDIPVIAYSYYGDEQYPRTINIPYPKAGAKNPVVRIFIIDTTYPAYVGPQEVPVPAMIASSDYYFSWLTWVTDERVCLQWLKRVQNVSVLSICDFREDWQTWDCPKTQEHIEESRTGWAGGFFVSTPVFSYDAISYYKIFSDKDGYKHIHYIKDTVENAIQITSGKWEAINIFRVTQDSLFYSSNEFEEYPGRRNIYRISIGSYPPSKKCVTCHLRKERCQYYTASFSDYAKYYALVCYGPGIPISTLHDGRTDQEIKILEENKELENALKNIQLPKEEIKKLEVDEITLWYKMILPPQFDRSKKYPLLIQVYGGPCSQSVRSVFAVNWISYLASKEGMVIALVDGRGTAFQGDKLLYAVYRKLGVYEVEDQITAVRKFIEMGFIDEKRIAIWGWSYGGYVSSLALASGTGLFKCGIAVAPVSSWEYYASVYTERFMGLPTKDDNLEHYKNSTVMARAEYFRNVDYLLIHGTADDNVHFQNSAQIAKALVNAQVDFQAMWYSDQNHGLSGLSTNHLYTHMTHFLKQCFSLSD
Briefly: Affinity (EC50) sandwich ELISA on SB9 oligopeptidase family. It is filed as binding. Conditions: HRP-labelled antibody 0.004-400 nM. On the procedure:
To determine the binding efficiency and inhibitory ability of NI-206.82C2 against other members of the SB9 oligopeptidase family that have sequence similarity to FAP, indirect ELISA and inhibition assays were performed on active enzyme targets. Active recombinant human enzymes evaluated in this assay include: Fibroblast Activation Protein (FAP; Sino Biologicals, 10464-H07H), Dipeptidyl Peptidase IV (DPPIV, BPS Bioscience 80040), Dipeptidyl Peptidase 8 (DPP8, BPS Bioscience 80080), Dipeptidyl Peptidase 9 (DPP9, BPS Bioscience […]), and Prolyl Oligopeptidase/Prolyl Endopeptidase (POP/PREP, BPS Bioscience 80105). Each recombinant peptidase was expressed with a purification tag, and attached to the 96 well ELISA plate using either a mouse anti-Histidine antibody (CloneTech), or a mouse anti-Glutathione S-transferase (GST, Sino Biologicals, 111213-MM02) tag antibody. Each enzyme was validated to bind and remained active on the ELISA plate using enzyme specific fluorogenic substrates. H-Gly-Pro-AMC (ATT Bioquest, 13450) was used to validate the presence and activity of DPP4, DPP9, and DPP8. […] Following a washing step, bound antibody was detected using 3,3′,5,5′-Tetramethylbenzidine (TMB) substrate. The reaction was stopped after 10 minutes by adding 2N H2SO4 and the resulting change in optical density was quantified using an ELISA plate reader at […] absorbance (FIG. 7 B).
(In general: An ELISA detects its analyte on a solid surface through an enzyme-linked reagent.)

For a further assay, the target named is T2, rhFAP (Homo sapiens, UniProt Q12884).
T2 construct: purchased Sino Biologicals 10464-H07H
T2 sequence (Q12884 26-760 limits assumed): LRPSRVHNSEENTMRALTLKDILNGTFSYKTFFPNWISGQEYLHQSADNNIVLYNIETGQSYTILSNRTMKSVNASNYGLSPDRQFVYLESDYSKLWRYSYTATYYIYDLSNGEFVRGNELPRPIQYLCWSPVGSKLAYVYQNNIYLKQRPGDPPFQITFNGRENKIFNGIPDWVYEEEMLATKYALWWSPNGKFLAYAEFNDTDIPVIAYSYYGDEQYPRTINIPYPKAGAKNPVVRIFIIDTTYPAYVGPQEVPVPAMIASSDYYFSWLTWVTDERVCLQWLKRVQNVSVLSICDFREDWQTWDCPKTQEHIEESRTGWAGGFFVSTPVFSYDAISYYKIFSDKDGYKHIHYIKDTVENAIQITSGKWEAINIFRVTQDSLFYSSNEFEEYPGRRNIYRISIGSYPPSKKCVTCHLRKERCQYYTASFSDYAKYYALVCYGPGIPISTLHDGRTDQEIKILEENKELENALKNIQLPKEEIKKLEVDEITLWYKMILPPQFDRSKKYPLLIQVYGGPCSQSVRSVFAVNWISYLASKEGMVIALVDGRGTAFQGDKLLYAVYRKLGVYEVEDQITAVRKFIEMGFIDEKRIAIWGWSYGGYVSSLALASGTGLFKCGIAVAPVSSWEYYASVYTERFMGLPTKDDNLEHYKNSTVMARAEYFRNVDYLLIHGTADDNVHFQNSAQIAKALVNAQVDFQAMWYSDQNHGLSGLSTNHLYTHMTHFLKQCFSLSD
As to the kind of experiment: Inhibition assay on SB9 oligopeptidase family (DQ-gelatin). It is filed as biochemical. The following applies: antibody up to 1000 nM, enzyme 0.2 nM. How it is done: To determine the inhibitory ability of the antibody a black 96 well plate was blocked for 1 h with blocking buffer. NI-206.82C2 was pipetted at concentrations of 1000, 50, 10, 3.03, 1.01, 0.031, 0.001, and 0 nM in PBS into the according wells. The enzymes were added at a concentration of 0.2 nM. Finally, fluorgenic substrates were then added to the well at a concentration equal to the Michaelis constant (Km) and the velocity of the substrate cleavage was quantified by fluorescence at 360 nm excitation and 460 nm emission. H-Gly-Pro-AMC (AAT Bioquest, 13450) was used for DPP4, DPP9, and DPP8. Z-Gly-Pro-AMC (BaChem, I1145) was used to evaluate the activity of POP/PREP. FAP activity was assessed using DQ-gelatin (Life Technologies, D12054) and cleavage quantified at 495 nm excitation and 515 nm emission.

Assay [2] deals with murine CT-26 colorectal cancer tissue sections. As to the kind of experiment: Immunofluorescence on murine colorectal cancer tissue sections. Also noted: species or system mouse. The following applies: Cy5 labelled antibody. How it is done:
NI-206.82C2 was prelabelled with Cyanine 5 antibody labeling kit (Innova Biosciences, 342-0010), and sufficient antibody labelling was validated with a photospectrometer. Cryosections of mouse livers containing syngeneic CT-26 liver metastasis were allowed to dry for 30 min at room temperature the fixed for 10 min in 4% formalin in PBS. Slides were then washed 3 times for 5 minutes in PBS and blocked for 1 hr at room temperature with 5% bovine serum albumin in PBS. The slides were then incubated overnight at 4° C. with staining solution containing DAPI at 0.5 μg/mL, and Alexa 547 phalloidin (Invitrogen) according to the manufacturer's instructions, and either Cy5 labelled NI-206.82C2 or a Cy5 labelled isotype-matched control antibody 3A1 at a concentration of 10 µg/mL, in blocking solution with 0.5% Triton X100. Slides were then washed 3 times in PBS, mounted in Lisbeth's mounting medium, and imaged with an SP8 confocal microscope (Leica Microsystems).

In assay [3] the test system is multiple myeloma cells and tumor stroma in the syngeneic MOPC315.BM mouse model. As to the kind of experiment: Immunofluorescence on murine multiple myeloma tissues. Conditions: Cy5 labelled antibody, MOPC315.BM BALB/c mice. On the procedure:
BALB/c mice were injected with 2×10^6 of the murine multiple myeloma cell line […] intravenously. BALB/c mice were injected with a vehicle-only control. Bone tissue was harvested and fixed in 4% PFA, decalcified in 10% EDTA (pH 7.4), embedded in paraffin before being sectioned (4 μm) and rehydrated. Then, CD138 mAb (Clone 281-2, BD Pharmingen) and Cy5 labelled NI-206.82C2 were used to identify MOPC315.BM.Luc cell infiltration, and NI-206.82C2 binding to these cells and surrounding stromal cells in the tissue sections. Stained tissue sections were then imaged using a fluorescent microscope (FIG. 13).

B1: NI-206.82C2: recombinant human memory B cell-derived monoclonal anti-FAP IgG1 antibody, variable regions in FIG. 1A, FAP inhibitory (antibody, V domains shown)
VH: QVQLQQSGPGLVKPSQTLSLTCAISGDSVSSNSVTWNWIRQSPSRGLEWLGRTYYRSKWYNDYAVSVKGRITINPDTSKNQFYLQLKSVTPEDAAVYYCARDSSILYGDYWGQGTLVTVSS
VL: QAVLTQPSSLSASPGASASLTCTLPSGINVGTYRIFWFQQKPGSPPQYLLSYKSDSDNHQGSGVPSRFSGSKDASANAGILLISGLQSEDEADYYCMIWHSSAWVFGGGTKLTVL
Turning to B1, the “binding to rhFAP” value in assay [1] is given as “selectively binds”. The “inhibition of rhFAP” value with rhFAP is listed as “selectively inhibits”. Also, the “staining of CT-26 syngeneic liver metastasis sections” value in assay [2] is on record as “found around the perimeter”. Moreover, the “binding to multiple myeloma cells and tumor stroma” value in assay [3] is listed as “binds”.
